{"source": "patent US12698507B2", "about": "“Methods and compositions for conferring and/or enhancing herbicide tolerance using protoporphyrinogen IX oxidase of various cyanobacteria or variant thereof” (FarmHannong Co., Ltd., priority 2019, dated 2026)", "molecules": {"B1": {"name": "CyPPO19 R89A + A167L + L327T + F360I: variant of CyPPO19 PPO protein (SEQ ID NO: 1) (protein)", "chain": "MSEVDVAIVGGGLSGLSLAWRLQQSAPQYSVVLLEASDRLGGNITTQTAEGFVWELGPNSFAPTPALLQLIAEVGLQSELIRGDRHLPAYIYWRGQLYPLQPTRPLALATSNLLSPWGKVRAALGALGFVPPYLGSGDESVNSFFRRHLGQEVAERLVAPFVSGVYLGDPQQLSAAAAFRRIAQLEKLGGGLIAGALHLRRQQAPKPKPPTSVQMRPGELGSFKEGLAALPRAIAQQLKAPIHLQTPVQEITPDPKGGYLLRSGEQTWRARSVVLATPAYQTAELVAPFQPAIARVLATIPYPTVACVVLAYPAGLGRSVRPGFGVTIPRSQGIRTLGTIWSSCLFPQRTPAGWQVFTSIIGGATDPDLASLSEEAIVQQVQQDLNRLLDLPAAKARLLGMKVWRRAIPQYMVGYPEQWQQVTHALSQTPGLFLCSNYAEGVALGDRVEHGNRTAAAVAAYLSGGQP", "modifications": "Synthetic_PPO of Thermosynechococcus elongatus PKUAC-SCTE542 (comprising GenBank No. CP032152.1)"}, "B2": {"name": "CyPPO19 R89A + A167C + I408R + F360M: variant of CyPPO19 PPO protein (SEQ ID NO: 1) (protein)", "chain": "B1 chain with L167C, T327L, I360M, I408R", "modifications": "Synthetic_PPO of Thermosynechococcus elongatus PKUAC-SCTE542 (comprising GenBank No. CP032152.1)"}, "B3": {"name": "CyPPO19 V165S + F360V: variant of CyPPO19 PPO protein (SEQ ID NO: 1) (protein)", "chain": "B1 chain with A89R, V165S, L167A, T327L, I360V", "modifications": "Synthetic_PPO of Thermosynechococcus elongatus PKUAC-SCTE542 (comprising GenBank No. CP032152.1)"}, "B4": {"name": "CyPPO19 V165C + A167I + V305M + F360V: variant of CyPPO19 PPO protein (SEQ ID NO: 1) (protein)", "chain": "B1 chain with A89R, V165C, L167I, V305M, T327L, I360V", "modifications": "Synthetic_PPO of Thermosynechococcus elongatus PKUAC-SCTE542 (comprising GenBank No. CP032152.1)"}, "B5": {"name": "CyPPO19 V165S + A167C + L327T + F360M: variant of CyPPO19 PPO protein (SEQ ID NO: 1) (protein)", "chain": "B1 chain with A89R, V165S, L167C, I360M", "modifications": "Synthetic_PPO of Thermosynechococcus elongatus PKUAC-SCTE542 (comprising GenBank No. CP032152.1)"}, "B6": {"name": "CyPPO19 V165C + A167C + I408W + F360T: variant of CyPPO19 PPO protein (SEQ ID NO: 1) (protein)", "chain": "B1 chain with A89R, V165C, L167C, T327L, I360T, I408W", "modifications": "Synthetic_PPO of Thermosynechococcus elongatus PKUAC-SCTE542 (comprising GenBank No. CP032152.1)"}, "B7": {"name": "CyPPO19 A167I + V305L + L327T + F360V: variant of CyPPO19 PPO protein (SEQ ID NO: 1) (protein)", "chain": "B1 chain with A89R, L167I, V305L, I360V", "modifications": "Synthetic_PPO of Thermosynechococcus elongatus PKUAC-SCTE542 (comprising GenBank No. CP032152.1)"}}, "test_system": "PPO-deficient BT3 E. coli (ΔPPO)", "test": "PPO-inhibiting herbicide tolerance test of PPO variants in E. coli (growth on herbicide-containing LB agar)", "assay_type": "cell-based", "details": "CyPPO19 variants in BT3 (ΔPPO) E. coli; LB agar with 0 to 2,000 μM herbicide, 37° C., dark, 16-20 hours", "method_in_brief": "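PPO-deficient BT3 E. coli expressing each variant from pET303 were diluted to OD600=0.5, then 10-fold serially, and spotted on LB-ampicillin agar with 0 to 2,000 μM herbicide. After 16-20 h at 37° C. in the dark, growth relative to wild type was scored from '−' (equivalent) to '+' per 10-fold resistance, max '+++++'.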", "note": "Changes are numbered by the printed parent chain. Names may count otherwise.", "data": [{"molecule": "B1", "values": [{"measurement": "tolerance level relative to wild type, Carfentrazone", "value": "++ (‘+’ per each 10-fold resistance)"}, {"measurement": "tolerance level relative to wild type, Flumioxazin", "value": "++++ (‘+’ per each 10-fold resistance)"}, {"measurement": "tolerance level relative to wild type, Fomesafen", "value": "+++ (‘+’ per each 10-fold resistance)"}, {"measurement": "tolerance level relative to wild type, Oxyfluorfen", "value": "+++++ (until ‘+++++’ as maximal resistance)"}, {"measurement": "tolerance level relative to wild type, Saflufenacil", "value": "++++ (‘+’ per each 10-fold resistance)"}, {"measurement": "tolerance level relative to wild type, Sulfentrazone", "value": "++++ (‘+’ per each 10-fold resistance)"}, {"measurement": "tolerance level relative to wild type, Tiafenacil", "value": "++++ (‘+’ per each 10-fold resistance)"}]}, {"molecule": "B2", "values": [{"measurement": "tolerance level relative to wild type, Carfentrazone", "value": "+ (‘+’ per each 10-fold resistance)"}, {"measurement": "tolerance level relative to wild type, Flumioxazin", "value": "++++ (‘+’ per each 10-fold resistance)"}, {"measurement": "tolerance level relative to wild type, Fomesafen", "value": "++ (‘+’ per each 10-fold resistance)"}, {"measurement": "tolerance level relative to wild type, Oxyfluorfen", "value": "++ (‘+’ per each 10-fold resistance)"}, {"measurement": "tolerance level relative to wild type, Saflufenacil", "value": "+++ (‘+’ per each 10-fold resistance)"}, {"measurement": "tolerance level relative to wild type, Sulfentrazone", "value": "++ (‘+’ per each 10-fold resistance)"}, {"measurement": "tolerance level relative to wild type, Tiafenacil", "value": "+++ (‘+’ per each 10-fold resistance)"}]}, {"molecule": "B3", "values": [{"measurement": "tolerance level relative to wild type, Carfentrazone", "value": "+ (‘+’ per each 10-fold resistance)"}, {"measurement": "tolerance level relative to wild type, Flumioxazin", "value": "++++ (‘+’ per each 10-fold resistance)"}, {"measurement": "tolerance level relative to wild type, Fomesafen", "value": "+ (‘+’ per each 10-fold resistance)"}, {"measurement": "tolerance level relative to wild type, Oxyfluorfen", "value": "++ (‘+’ per each 10-fold resistance)"}, {"measurement": "tolerance level relative to wild type, Saflufenacil", "value": "++++ (‘+’ per each 10-fold resistance)"}, {"measurement": "tolerance level relative to wild type, Sulfentrazone", "value": "++++ (‘+’ per each 10-fold resistance)"}, {"measurement": "tolerance level relative to wild type, Tiafenacil", "value": "++++ (‘+’ per each 10-fold resistance)"}]}, {"molecule": "B4", "values": [{"measurement": "tolerance level relative to wild type, Carfentrazone", "value": "+ (‘+’ per each 10-fold resistance)"}, {"measurement": "tolerance level relative to wild type, Flumioxazin", "value": "++ (‘+’ per each 10-fold resistance)"}, {"measurement": "tolerance level relative to wild type, Fomesafen", "value": "+ (‘+’ per each 10-fold resistance)"}, {"measurement": "tolerance level relative to wild type, Oxyfluorfen", "value": "+ (‘+’ per each 10-fold resistance)"}, {"measurement": "tolerance level relative to wild type, Saflufenacil", "value": "++ (‘+’ per each 10-fold resistance)"}, {"measurement": "tolerance level relative to wild type, Sulfentrazone", "value": "+ (‘+’ per each 10-fold resistance)"}, {"measurement": "tolerance level relative to wild type, Tiafenacil", "value": "++ (‘+’ per each 10-fold resistance)"}]}, {"molecule": "B5", "values": [{"measurement": "tolerance level relative to wild type, Carfentrazone", "value": "+ (‘+’ per each 10-fold resistance)"}, {"measurement": "tolerance level relative to wild type, Flumioxazin", "value": "++++ (‘+’ per each 10-fold resistance)"}, {"measurement": "tolerance level relative to wild type, Fomesafen", "value": "++ (‘+’ per each 10-fold resistance)"}, {"measurement": "tolerance level relative to wild type, Oxyfluorfen", "value": "++ (‘+’ per each 10-fold resistance)"}, {"measurement": "tolerance level relative to wild type, Saflufenacil", "value": "++++ (‘+’ per each 10-fold resistance)"}, {"measurement": "tolerance level relative to wild type, Sulfentrazone", "value": "++++ (‘+’ per each 10-fold resistance)"}, {"measurement": "tolerance level relative to wild type, Tiafenacil", "value": "++++ (‘+’ per each 10-fold resistance)"}]}, {"molecule": "B6", "values": [{"measurement": "tolerance level relative to wild type, Carfentrazone", "value": "+ (‘+’ per each 10-fold resistance)"}, {"measurement": "tolerance level relative to wild type, Flumioxazin", "value": "++++ (‘+’ per each 10-fold resistance)"}, {"measurement": "tolerance level relative to wild type, Fomesafen", "value": "++ (‘+’ per each 10-fold resistance)"}, {"measurement": "tolerance level relative to wild type, Oxyfluorfen", "value": "++ (‘+’ per each 10-fold resistance)"}, {"measurement": "tolerance level relative to wild type, Saflufenacil", "value": "++++ (‘+’ per each 10-fold resistance)"}, {"measurement": "tolerance level relative to wild type, Sulfentrazone", "value": "+++ (‘+’ per each 10-fold resistance)"}, {"measurement": "tolerance level relative to wild type, Tiafenacil", "value": "++++ (‘+’ per each 10-fold resistance)"}]}, {"molecule": "B7", "values": [{"measurement": "tolerance level relative to wild type, Carfentrazone", "value": "+ (‘+’ per each 10-fold resistance)"}, {"measurement": "tolerance level relative to wild type, Flumioxazin", "value": "+++++ (until ‘+++++’ as maximal resistance)"}, {"measurement": "tolerance level relative to wild type, Fomesafen", "value": "+++ (‘+’ per each 10-fold resistance)"}, {"measurement": "tolerance level relative to wild type, Oxyfluorfen", "value": "+++ (‘+’ per each 10-fold resistance)"}, {"measurement": "tolerance level relative to wild type, Saflufenacil", "value": "++++ (‘+’ per each 10-fold resistance)"}, {"measurement": "tolerance level relative to wild type, Sulfentrazone", "value": "++++ (‘+’ per each 10-fold resistance)"}, {"measurement": "tolerance level relative to wild type, Tiafenacil", "value": "+++++ (until ‘+++++’ as maximal resistance)"}]}]}
